Source: article PMC9060916

T1: alpha fetoprotein (AFP) (human, UniProt P02771 19-609)
T1 sequence: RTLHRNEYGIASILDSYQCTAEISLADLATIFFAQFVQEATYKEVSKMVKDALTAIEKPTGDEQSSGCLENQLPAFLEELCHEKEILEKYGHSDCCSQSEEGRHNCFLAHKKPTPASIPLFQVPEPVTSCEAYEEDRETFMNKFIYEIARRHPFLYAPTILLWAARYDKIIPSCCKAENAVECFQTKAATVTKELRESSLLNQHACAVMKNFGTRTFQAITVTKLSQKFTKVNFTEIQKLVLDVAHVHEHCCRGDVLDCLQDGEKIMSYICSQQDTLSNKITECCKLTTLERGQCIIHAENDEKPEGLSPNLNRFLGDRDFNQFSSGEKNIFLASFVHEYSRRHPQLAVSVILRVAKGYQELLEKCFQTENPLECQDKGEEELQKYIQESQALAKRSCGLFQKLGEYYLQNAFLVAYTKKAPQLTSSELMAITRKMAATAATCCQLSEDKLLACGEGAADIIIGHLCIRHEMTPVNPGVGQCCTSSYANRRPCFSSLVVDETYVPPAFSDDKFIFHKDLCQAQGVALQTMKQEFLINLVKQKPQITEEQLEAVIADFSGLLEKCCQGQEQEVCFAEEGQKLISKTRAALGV

T2: C-reactive protein (CRP) (UniProt P02741 19-224)
T2 sequence: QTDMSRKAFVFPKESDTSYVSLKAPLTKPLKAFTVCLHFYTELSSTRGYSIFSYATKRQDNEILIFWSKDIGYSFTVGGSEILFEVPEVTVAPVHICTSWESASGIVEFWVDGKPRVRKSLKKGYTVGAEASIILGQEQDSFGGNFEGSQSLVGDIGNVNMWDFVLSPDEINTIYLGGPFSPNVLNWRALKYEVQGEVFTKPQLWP


What was measured:
alpha fetoprotein (AFP) = biological target: T1, alpha fetoprotein (AFP); assay: electrochemical sandwich aptasensor
C-reactive protein (CRP) = biological target: T2, C-reactive protein (CRP); assay: electrochemical sandwich aptasensor

Binder | binding result (alpha fetoprotein (AFP)) | binding result (C-reactive protein (CRP))
ATACCAGCTTATTCAATTATG (ssDNA, 5' HS-(CH2)6) [HS-P-ATG] | no binding | no binding
GACATACCAGCTTATTCAATT (ssDNA, 5' HS-(CH2)6) [HS-GAC-P] | no binding | no binding
